Laboratory results taken from patent US20130137628A1.

Biological target: ATP-binding cassette transporter A1 (ABCA1) on RAW 264.7 murine macrophage cells (murine) (UniProt P41233)
Assay: cell-based or functional assay

Sequence of UniProt P41233 (P41233 whole entry): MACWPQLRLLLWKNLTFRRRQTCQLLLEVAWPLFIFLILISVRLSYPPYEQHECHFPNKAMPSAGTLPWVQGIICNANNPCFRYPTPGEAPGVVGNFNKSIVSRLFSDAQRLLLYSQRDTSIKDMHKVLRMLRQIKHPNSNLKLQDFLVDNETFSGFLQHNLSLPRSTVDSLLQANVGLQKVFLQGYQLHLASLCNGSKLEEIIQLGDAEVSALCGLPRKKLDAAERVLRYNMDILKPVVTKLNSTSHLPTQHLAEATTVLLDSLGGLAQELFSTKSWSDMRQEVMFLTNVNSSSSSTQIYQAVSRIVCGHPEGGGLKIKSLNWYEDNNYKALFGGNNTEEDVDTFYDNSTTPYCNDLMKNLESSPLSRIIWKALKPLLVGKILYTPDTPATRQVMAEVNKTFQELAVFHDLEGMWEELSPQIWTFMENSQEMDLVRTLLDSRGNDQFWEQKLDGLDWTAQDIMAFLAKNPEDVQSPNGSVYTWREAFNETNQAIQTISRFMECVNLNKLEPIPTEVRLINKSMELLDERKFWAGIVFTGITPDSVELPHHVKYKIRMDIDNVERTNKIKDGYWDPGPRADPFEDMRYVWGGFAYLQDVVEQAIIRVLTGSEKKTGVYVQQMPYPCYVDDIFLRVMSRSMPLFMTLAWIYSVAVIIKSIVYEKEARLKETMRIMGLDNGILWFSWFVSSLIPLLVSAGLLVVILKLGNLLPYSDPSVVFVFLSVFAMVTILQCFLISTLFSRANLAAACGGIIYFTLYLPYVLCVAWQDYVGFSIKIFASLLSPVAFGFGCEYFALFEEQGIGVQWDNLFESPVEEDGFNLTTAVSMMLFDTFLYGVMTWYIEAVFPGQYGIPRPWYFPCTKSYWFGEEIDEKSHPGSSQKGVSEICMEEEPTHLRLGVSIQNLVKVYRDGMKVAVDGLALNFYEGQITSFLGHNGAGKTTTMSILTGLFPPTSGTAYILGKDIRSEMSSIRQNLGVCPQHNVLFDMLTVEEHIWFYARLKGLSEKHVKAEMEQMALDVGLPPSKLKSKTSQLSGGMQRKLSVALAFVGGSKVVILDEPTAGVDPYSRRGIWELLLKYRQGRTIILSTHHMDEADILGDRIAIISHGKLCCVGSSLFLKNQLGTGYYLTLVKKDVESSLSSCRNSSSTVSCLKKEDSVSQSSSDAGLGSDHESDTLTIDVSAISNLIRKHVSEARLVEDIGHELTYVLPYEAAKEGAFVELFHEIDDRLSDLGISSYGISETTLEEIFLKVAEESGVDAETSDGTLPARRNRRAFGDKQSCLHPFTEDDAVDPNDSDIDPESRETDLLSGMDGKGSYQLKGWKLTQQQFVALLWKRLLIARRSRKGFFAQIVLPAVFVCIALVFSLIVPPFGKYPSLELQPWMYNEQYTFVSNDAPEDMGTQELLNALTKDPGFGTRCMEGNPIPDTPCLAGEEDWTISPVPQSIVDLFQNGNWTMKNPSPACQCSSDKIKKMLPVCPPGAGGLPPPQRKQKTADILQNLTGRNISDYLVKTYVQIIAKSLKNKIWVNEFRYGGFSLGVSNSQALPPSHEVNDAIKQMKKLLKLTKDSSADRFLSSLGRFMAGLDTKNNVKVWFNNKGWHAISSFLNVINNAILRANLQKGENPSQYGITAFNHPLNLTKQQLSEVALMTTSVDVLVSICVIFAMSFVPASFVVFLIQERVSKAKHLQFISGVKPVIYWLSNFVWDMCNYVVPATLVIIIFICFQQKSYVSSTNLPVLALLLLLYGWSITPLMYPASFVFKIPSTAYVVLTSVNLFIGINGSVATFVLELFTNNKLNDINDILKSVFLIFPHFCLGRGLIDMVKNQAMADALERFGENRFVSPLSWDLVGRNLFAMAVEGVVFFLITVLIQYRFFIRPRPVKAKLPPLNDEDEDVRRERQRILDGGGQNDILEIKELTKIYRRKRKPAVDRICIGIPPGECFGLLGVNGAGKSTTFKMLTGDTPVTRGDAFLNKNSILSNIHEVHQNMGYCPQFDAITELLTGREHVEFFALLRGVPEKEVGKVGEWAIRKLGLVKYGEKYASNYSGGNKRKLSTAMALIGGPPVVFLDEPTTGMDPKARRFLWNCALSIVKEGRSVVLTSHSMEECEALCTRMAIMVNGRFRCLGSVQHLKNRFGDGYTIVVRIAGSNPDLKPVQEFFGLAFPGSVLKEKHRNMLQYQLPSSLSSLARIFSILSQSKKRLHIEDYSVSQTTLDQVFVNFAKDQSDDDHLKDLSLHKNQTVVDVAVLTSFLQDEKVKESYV

Substance: recombinant wild type ApoA1 after MPO/HOCl-mediated oxidative damage (from UniProt P02647 25-267)
- ABCA-1-dependent cholesterol efflux ability (reduction upon MPO/HOCl-mediated oxidative damage), RAW 264.7 cells, [3H]-cholesterol: 75 to 80%
